In patent publication US20250270297A1 (DAEGU GYEONGBUK INSTITUTE OF SCIENCE AND TECHNOLOGY, published 2025):

B1: C8 (Fc fusion)
VL: QSALTQPASASGSPGQSVTISCTGTSSDVGGYNYVSWYQQHPGKAPKLMIYDVSKRPSGVSDRFSGSKSGNTASLTISGLQAEDGADYYCSSYRRGRTVVFGGGTKLTVL
VH: QVQLQQWGGGLVQPGGSLRLSCAASGFTFSSYAMSWVRQAPGKGLEWVSAISGSGGSTYYADSVKGRFTISRDNSKNTLYLQMNSLRAEDTAVYYCAKNYFGNPRGFDYWGQGTMVTVSS
B2: C11 (Fc fusion)
VL: ETTLTQSPGTLSVSPGERVTLSCRASQSVSSYLAWYQQKPGQAPRLLIYGASTRATGIPDRFSGSGSGTDFTLTISRLEPEDFAVYYCQQYGISPLNFGGGTKVEIK
VH: QVQLVQSGAEVKKPGSSVKVSCKASGGTFSSYAISWVRQAPGQGLEWMGGVIPIFGTANYAQKFRGRVTMTTDTSTSTAYMELRSLTSDDTAVYYCASPQGTWSTFLEWQGAFSVWGQGTTVTVSS
B3: C32 (Fc fusion)
VL: DIQMTQSPAIMSASPGERVTMTCSASSSIRYIYWYQQKPGSSPRLLIYDTSNVAPGVPFRFSGSGSGTSYSLTINRMEAEDAATYYCQEWSGYPYTFGGGTKVEIKR
VH: QVQLVQSGAEVKKPGSSVKVSCKASGGSFSSYAISWVRQAPGQGLEWMGGIIPIFGTANYAQKFQGRVTITADESTSTAYMELSSLRSEDTAVYYCANLRGGSSHYGMDVWGQGTLVTVSS

The binders below were run against T1, rhACE2 (ACRO, Human ACE2/ACEH Protein, His Tag, #AC2-H52H8) (human, UniProt Q9BYF1 18-740) (assay: ELISA, rhACE2 coated at 0.2 ug/well, antibody at 0.02-2.5 ug/ml, anti-human-Fc-HRP, absorbance at 450 nm).
T1 construct: not shown: His tag
T1 sequence (Q9BYF1 18-740 limits assumed): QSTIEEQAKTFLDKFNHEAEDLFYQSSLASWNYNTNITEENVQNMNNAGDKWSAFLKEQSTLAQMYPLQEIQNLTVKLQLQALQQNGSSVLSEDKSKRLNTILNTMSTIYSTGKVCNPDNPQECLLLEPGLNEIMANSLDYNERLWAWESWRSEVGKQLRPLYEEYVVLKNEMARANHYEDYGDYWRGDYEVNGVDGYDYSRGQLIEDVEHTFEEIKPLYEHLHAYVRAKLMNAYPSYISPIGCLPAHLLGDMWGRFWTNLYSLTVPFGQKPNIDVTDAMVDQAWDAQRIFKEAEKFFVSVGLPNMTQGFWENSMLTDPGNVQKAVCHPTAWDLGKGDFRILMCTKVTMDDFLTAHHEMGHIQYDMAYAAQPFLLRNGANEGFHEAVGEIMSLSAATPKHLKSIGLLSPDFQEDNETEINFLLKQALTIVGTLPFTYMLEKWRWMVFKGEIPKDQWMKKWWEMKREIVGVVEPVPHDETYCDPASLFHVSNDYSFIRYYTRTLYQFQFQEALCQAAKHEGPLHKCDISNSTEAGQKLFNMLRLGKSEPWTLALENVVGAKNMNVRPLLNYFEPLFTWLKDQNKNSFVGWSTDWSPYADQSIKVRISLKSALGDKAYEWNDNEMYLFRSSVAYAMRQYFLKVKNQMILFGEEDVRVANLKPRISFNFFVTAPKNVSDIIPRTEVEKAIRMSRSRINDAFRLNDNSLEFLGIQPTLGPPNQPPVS
B1: binds.
B2: binds.
B3: binds.
